Among the data in patent publication US9176064B2, “Bisubstrate fluorescent probes for protein kinase CK2” (University of Tartu, priority 2012, dated 2015) are remaining activity values, retold here.

Experiment in all cases: Kinase panel residual activity
Common to all, as to type: biochemical
What all share (conditions): compound at 1 micromolar

In series [1] the target is MELK (Homo sapiens, UniProt Q14680).
The target of series [2] is T1, DDR2 (Homo sapiens, UniProt Q16832).
T1 sequence (Q16832 22-855): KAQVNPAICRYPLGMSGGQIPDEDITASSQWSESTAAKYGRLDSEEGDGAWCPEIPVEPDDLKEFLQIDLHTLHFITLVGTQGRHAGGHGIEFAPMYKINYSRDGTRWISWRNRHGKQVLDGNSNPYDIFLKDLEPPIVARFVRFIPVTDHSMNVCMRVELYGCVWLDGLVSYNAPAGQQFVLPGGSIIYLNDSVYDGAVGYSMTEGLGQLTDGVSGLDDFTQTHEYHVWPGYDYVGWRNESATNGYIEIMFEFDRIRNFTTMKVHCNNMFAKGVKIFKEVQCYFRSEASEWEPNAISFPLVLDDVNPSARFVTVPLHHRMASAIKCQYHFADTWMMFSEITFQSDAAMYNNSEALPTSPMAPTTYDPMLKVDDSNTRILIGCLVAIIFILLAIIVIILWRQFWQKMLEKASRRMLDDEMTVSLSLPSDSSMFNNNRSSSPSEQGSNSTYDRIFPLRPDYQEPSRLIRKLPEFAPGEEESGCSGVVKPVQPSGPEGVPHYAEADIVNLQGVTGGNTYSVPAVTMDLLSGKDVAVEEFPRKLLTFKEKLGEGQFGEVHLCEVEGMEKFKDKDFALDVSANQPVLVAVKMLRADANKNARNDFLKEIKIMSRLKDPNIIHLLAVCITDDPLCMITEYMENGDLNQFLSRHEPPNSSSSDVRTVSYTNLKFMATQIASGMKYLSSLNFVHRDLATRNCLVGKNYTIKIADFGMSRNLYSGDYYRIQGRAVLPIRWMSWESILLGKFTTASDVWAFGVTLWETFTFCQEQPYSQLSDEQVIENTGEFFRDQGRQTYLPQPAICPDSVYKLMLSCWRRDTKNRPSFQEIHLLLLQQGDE

In series [3] the target is T2, TGFBR1 (Homo sapiens, UniProt P36897).
T2 sequence (P36897 34-503): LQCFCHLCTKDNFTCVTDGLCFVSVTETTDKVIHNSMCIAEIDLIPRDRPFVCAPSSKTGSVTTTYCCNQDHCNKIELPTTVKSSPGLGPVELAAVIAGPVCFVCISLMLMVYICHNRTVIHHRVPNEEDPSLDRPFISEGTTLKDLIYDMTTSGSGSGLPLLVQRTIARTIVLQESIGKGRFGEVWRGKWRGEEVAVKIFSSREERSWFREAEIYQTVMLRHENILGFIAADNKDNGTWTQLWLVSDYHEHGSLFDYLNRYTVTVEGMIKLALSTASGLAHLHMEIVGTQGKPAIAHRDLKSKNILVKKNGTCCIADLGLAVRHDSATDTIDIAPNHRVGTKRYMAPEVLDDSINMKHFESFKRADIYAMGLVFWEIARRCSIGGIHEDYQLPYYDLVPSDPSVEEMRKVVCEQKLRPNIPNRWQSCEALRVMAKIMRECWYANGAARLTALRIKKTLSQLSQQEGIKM

Series [4] concerns the target RSK2 (Homo sapiens, UniProt P51812).
In series [5] the target is T3, IKKe (Homo sapiens, UniProt Q14164).
T3 sequence (Q14164 1-716): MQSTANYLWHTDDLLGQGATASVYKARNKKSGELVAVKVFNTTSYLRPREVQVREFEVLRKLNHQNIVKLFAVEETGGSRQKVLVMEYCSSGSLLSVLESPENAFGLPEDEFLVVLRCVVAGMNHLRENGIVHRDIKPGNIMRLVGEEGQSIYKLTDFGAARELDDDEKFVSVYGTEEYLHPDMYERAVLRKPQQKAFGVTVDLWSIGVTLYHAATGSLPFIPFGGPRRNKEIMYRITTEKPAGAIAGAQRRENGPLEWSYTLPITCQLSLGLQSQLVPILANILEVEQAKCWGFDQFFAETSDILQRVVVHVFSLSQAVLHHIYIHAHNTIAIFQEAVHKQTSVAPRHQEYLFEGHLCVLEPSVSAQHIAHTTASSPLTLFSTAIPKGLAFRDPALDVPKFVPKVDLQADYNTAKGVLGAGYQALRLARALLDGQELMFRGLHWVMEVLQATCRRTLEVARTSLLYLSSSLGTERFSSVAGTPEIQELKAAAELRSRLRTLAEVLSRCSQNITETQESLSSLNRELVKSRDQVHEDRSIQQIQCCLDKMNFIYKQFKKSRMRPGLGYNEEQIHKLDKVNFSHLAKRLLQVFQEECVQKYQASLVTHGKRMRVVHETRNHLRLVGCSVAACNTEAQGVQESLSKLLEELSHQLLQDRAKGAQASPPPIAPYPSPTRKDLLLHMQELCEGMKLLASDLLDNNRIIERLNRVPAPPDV

Series [6] has as its target T4, TTK (Homo sapiens, UniProt P33981).
T4 sequence (P33981 1-857): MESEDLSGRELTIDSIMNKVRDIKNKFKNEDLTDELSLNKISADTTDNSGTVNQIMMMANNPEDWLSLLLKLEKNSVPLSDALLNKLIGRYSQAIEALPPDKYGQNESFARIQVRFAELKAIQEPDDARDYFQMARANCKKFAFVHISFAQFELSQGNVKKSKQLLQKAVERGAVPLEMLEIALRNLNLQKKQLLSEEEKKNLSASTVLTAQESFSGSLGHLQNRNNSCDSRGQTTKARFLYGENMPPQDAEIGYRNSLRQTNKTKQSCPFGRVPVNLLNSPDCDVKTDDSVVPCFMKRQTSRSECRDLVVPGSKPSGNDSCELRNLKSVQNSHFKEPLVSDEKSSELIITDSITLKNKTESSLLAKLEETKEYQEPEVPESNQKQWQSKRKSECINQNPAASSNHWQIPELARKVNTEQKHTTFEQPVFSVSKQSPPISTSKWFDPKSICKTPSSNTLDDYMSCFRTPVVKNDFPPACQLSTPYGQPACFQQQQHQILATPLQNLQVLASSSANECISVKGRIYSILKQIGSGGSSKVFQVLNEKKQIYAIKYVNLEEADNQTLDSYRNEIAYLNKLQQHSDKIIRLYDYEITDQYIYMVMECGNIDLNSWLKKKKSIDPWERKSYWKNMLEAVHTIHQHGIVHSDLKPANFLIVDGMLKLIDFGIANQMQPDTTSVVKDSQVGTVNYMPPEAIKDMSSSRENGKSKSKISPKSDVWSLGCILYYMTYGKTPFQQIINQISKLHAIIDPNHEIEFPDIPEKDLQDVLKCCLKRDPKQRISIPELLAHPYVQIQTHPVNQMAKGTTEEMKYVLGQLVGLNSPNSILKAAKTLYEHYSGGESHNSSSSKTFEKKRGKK

For orientation: remaining activity means the signal under treatment as a percentage of the control signal.

Where a SMILES comes first, the peptide text is derived from it. [ ]: non-standard residue; d: D form. The star is where a group is joined. X1 = O=C(CCCCCCCn1cnc2c(Br)c(Br)c(Br)c(Br)c21)*

MELK, sequence (Q14680 whole entry, species assumed): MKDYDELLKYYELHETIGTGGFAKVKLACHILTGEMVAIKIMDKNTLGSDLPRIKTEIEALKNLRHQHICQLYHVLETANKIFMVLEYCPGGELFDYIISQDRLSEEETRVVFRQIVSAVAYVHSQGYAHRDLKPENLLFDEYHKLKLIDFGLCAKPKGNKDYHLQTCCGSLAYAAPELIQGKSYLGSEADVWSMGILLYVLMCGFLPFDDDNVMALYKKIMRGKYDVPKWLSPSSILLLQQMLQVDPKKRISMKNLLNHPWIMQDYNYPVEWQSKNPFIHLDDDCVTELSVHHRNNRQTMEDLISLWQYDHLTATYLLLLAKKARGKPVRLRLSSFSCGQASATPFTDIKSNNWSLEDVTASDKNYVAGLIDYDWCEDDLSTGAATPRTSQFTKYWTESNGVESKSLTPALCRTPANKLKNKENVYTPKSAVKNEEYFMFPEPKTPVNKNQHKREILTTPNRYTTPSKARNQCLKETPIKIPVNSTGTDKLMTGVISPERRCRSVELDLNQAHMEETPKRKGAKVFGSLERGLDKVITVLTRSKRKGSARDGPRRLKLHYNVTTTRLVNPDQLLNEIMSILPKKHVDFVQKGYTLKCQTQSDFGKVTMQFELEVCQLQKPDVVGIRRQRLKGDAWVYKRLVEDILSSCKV
RSK2, sequence (P51812 whole entry, species assumed): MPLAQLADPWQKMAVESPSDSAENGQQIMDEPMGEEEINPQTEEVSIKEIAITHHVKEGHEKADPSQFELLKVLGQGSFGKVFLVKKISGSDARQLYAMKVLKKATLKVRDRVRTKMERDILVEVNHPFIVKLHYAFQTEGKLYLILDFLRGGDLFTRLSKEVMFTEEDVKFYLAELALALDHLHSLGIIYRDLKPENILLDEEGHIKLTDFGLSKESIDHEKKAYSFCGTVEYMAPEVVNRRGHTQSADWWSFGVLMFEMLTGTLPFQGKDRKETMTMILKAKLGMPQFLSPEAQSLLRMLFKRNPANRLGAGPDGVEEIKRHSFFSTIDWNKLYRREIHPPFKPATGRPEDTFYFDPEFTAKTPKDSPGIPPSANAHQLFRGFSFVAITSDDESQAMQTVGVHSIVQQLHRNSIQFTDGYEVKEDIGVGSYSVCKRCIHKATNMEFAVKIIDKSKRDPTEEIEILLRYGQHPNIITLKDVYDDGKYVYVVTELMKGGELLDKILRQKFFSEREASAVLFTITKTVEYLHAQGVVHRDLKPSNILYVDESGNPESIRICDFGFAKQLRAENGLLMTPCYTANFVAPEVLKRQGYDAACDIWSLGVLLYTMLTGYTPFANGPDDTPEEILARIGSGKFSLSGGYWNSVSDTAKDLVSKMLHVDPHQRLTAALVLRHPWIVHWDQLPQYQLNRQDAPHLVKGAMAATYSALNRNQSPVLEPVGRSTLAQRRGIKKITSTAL

For `NCCCC[C@H](NC(=O)[C@H](CC(=O)O)NC(=O)[C@H](CC(=O)O)NC(=O)[C@H](CC(=O)O)NC(=O)[C@H](CC(=O)O)NC(=O)[C@H](CC(=O)O)NC(=O)[C@@H](CC(=O)O)NC(=O)CCCCCCCn1cnc2c(Br)c(Br)c(Br)c(Br)c21)C(=O)O` [TBBI-OcA-(D-Asp)-(L-Asp)5-(L-Lys)-OH] (X1-[dD]DDDDDK-OH), the remaining activity at 1 µM in series [1] came out at 92%; in series [2], 109%; in series [3], 98%; in series [4], 70%; in series [5] it was 84%; in series [6] it was 52%.
